Results from patent publication US20190119358A1.
Values belong to the binder of their own block, whether it stands above or below them. *1 amine or outer side, *2 acyl side, *3 side chain or, on linkers, in order; H or OH if unused. Bridges are numbered along the chain shown (N, C = ends). Where no end group is shown, it is not given here. [ ]: non-standard residue; d: D form. The star is where a group is joined. Trp(7-aza) = N[C@@H](Cc1c[nH]c2ncccc12)C(=O)O; NMePhe(4-F) = CN[C@@H](Cc1ccc(F)cc1)C(=O)O; ivDde = CC(C)CC(=C1C(=O)CC(C)(C)CC1=O)*; mXylylene = c1cc(C[*:1])cc(C[*:2])c1; NMeY = CN[C@@H](Cc1ccc(O)cc1)C(=O)O; dPhg = N[C@@H](C(=O)O)c1ccccc1; NMeK = CN[C@@H](CCCCN)C(=O)O; Phg = N[C@H](C(=O)O)c1ccccc1; Tle = CC(C)(C)[C@H](N)C(=O)O; NMeS = CN[C@@H](CO)C(=O)O; NMeA = CN[C@@H](C)C(=O)O; Orn = NCCC[C@H](N)C(=O)O; Pra = C#CC[C@H](N)C(=O)O; Nva = CCC[C@H](N)C(=O)O; Dap = NC[C@H](N)C(=O)O; PEG2 = NCCOCCOCCC(=O)O; AEEA = NCCOCCOCC(=O)O; Acryloyl = C=CC(=O)*; Ava = NCCCCC(=O)O; Sar = CNCC(=O)O

Biological target: GMPPNP-loaded H-Ras or GTP-loaded K-Ras
Assay: FP competition, displacement of probe R4007 from Ras

- IC50: 73 nM
B1: R4121 (peptide)
peptide: Ac-[Nva]CY[Tle]KH[NMeA][dPhg][Trp(7-aza)]Y[NMePhe(4-F)][NMeA]C-NH2
modifications: linker 2-13 via mXylylene
SMILES: CCC[C@H](NC(C)=O)C(=O)N[C@H]1CSCc2cccc(c2)CSC[C@@H](C(N)=O)NC(=O)[C@H](C)N(C)C(=O)[C@H](Cc2ccc(F)cc2)N(C)C(=O)[C@H](Cc2ccc(O)cc2)NC(=O)[C@H](Cc2c[nH]c3ncccc23)NC(=O)[C@@H](c2ccccc2)NC(=O)[C@H](C)N(C)C(=O)[C@H](Cc2c[nH]cn2)NC(=O)[C@H](CCCCN)NC(=O)[C@H](C(C)(C)C)NC(=O)[C@H](Cc2ccc(O)cc2)NC1=O

- IC50: 85 nM
B2: R4123 (peptide)
peptide: Ac-[Nva]CY[Tle]AK(Acryloyl)[NMeA][Phg][Trp(7-aza)]Y[NMePhe(4-F)][Sar]C-NH2
modifications: linker 2-13 via mXylylene
SMILES: C=CC(=O)NCCCC[C@@H]1NC(=O)[C@H](C)NC(=O)[C@H](C(C)(C)C)NC(=O)[C@H](Cc2ccc(O)cc2)NC(=O)[C@@H](NC(=O)[C@H](CCC)NC(C)=O)CSCc2cccc(c2)CSC[C@@H](C(N)=O)NC(=O)CN(C)C(=O)[C@H](Cc2ccc(F)cc2)N(C)C(=O)[C@H](Cc2ccc(O)cc2)NC(=O)[C@H](Cc2c[nH]c3ncccc23)NC(=O)[C@H](c2ccccc2)NC(=O)[C@H](C)N(C)C1=O

- IC50: 281 nM
B3: R4132 (peptide)
peptide: Ac-[Nva]CY[Tle]KH[NMeS][Phg][Trp(7-aza)]Y[NMePhe(4-F)][Sar]C-NH2
modifications: linker 2-13 via mXylylene
SMILES: CCC[C@H](NC(C)=O)C(=O)N[C@H]1CSCc2cccc(c2)CSC[C@@H](C(N)=O)NC(=O)CN(C)C(=O)[C@H](Cc2ccc(F)cc2)N(C)C(=O)[C@H](Cc2ccc(O)cc2)NC(=O)[C@H](Cc2c[nH]c3ncccc23)NC(=O)[C@H](c2ccccc2)NC(=O)[C@H](CO)N(C)C(=O)[C@H](Cc2c[nH]cn2)NC(=O)[C@H](CCCCN)NC(=O)[C@H](C(C)(C)C)NC(=O)[C@H](Cc2ccc(O)cc2)NC1=O

- IC50: 392 nM
B4: R4136 (peptide)
peptide: Ac-[Nva]CY[Tle]A[Dap](Acryloyl)[NMeA][Phg][Trp(7-aza)]Y[NMePhe(4-F)][Sar]C-NH2
modifications: linker 2-13 via mXylylene
SMILES: C=CC(=O)NC[C@@H]1NC(=O)[C@H](C)NC(=O)[C@H](C(C)(C)C)NC(=O)[C@H](Cc2ccc(O)cc2)NC(=O)[C@@H](NC(=O)[C@H](CCC)NC(C)=O)CSCc2cccc(c2)CSC[C@@H](C(N)=O)NC(=O)CN(C)C(=O)[C@H](Cc2ccc(F)cc2)N(C)C(=O)[C@H](Cc2ccc(O)cc2)NC(=O)[C@H](Cc2c[nH]c3ncccc23)NC(=O)[C@H](c2ccccc2)NC(=O)[C@H](C)N(C)C1=O

- IC50: 110 nM
B5: R4125 (peptide)
peptide: Ac-[Nva]CY[Tle]AH[NMeK][Phg][Trp(7-aza)]Y[NMePhe(4-F)][Sar]C-NH2
modifications: linker 2-13 via mXylylene
SMILES: CCC[C@H](NC(C)=O)C(=O)N[C@H]1CSCc2cccc(c2)CSC[C@@H](C(N)=O)NC(=O)CN(C)C(=O)[C@H](Cc2ccc(F)cc2)N(C)C(=O)[C@H](Cc2ccc(O)cc2)NC(=O)[C@H](Cc2c[nH]c3ncccc23)NC(=O)[C@H](c2ccccc2)NC(=O)[C@H](CCCCN)N(C)C(=O)[C@H](Cc2c[nH]cn2)NC(=O)[C@H](C)NC(=O)[C@H](C(C)(C)C)NC(=O)[C@H](Cc2ccc(O)cc2)NC1=O

- IC50: 148 nM
B6: R4127 (peptide)
peptide: Ac-[Nva]CY[Tle]KH[NMeA][Phg][Trp(7-aza)]Y[NMePhe(4-F)][Sar]CGGGCVIM-NH2
modifications: linker 2-13 via mXylylene
SMILES: CCC[C@H](NC(C)=O)C(=O)N[C@H]1CSCc2cccc(c2)CSC[C@@H](C(=O)NCC(=O)NCC(=O)NCC(=O)N[C@@H](CS)C(=O)N[C@H](C(=O)N[C@H](C(=O)N[C@@H](CCSC)C(N)=O)[C@@H](C)CC)C(C)C)NC(=O)CN(C)C(=O)[C@H](Cc2ccc(F)cc2)N(C)C(=O)[C@H](Cc2ccc(O)cc2)NC(=O)[C@H](Cc2c[nH]c3ncccc23)NC(=O)[C@H](c2ccccc2)NC(=O)[C@H](C)N(C)C(=O)[C@H](Cc2c[nH]cn2)NC(=O)[C@H](CCCCN)NC(=O)[C@H](C(C)(C)C)NC(=O)[C@H](Cc2ccc(O)cc2)NC1=O

- IC50: 268 nM
B7: R4130 (peptide)
peptide: cyclo([AEEA]Y[Tle]KH[NMeA][Phg][Trp(7-aza)]Y[NMePhe(4-F)][Sar][Pra])
SMILES: C#CC[C@@H]1NC(=O)CN(C)C(=O)[C@H](Cc2ccc(F)cc2)N(C)C(=O)[C@H](Cc2ccc(O)cc2)NC(=O)[C@H](Cc2c[nH]c3ncccc23)NC(=O)[C@H](c2ccccc2)NC(=O)[C@H](C)N(C)C(=O)[C@H](Cc2c[nH]cn2)NC(=O)[C@H](CCCCN)NC(=O)[C@H](C(C)(C)C)NC(=O)[C@H](Cc2ccc(O)cc2)NC(=O)COCCOCCNC1=O

- IC50: 77.1 nM
B8: R4122 (peptide)
peptide: Ac-[Nva]CY[Tle]A[Orn](Acryloyl)[NMeA][Phg][Trp(7-aza)]Y[NMePhe(4-F)][Sar]C-NH2
modifications: linker 2-13 via mXylylene
SMILES: C=CC(=O)NCCC[C@@H]1NC(=O)[C@H](C)NC(=O)[C@H](C(C)(C)C)NC(=O)[C@H](Cc2ccc(O)cc2)NC(=O)[C@@H](NC(=O)[C@H](CCC)NC(C)=O)CSCc2cccc(c2)CSC[C@@H](C(N)=O)NC(=O)CN(C)C(=O)[C@H](Cc2ccc(F)cc2)N(C)C(=O)[C@H](Cc2ccc(O)cc2)NC(=O)[C@H](Cc2c[nH]c3ncccc23)NC(=O)[C@H](c2ccccc2)NC(=O)[C@H](C)N(C)C1=O

- IC50: 346 nM
Binder: Ac-[Nva]CY[Tle]K(4‑(dimethylamino)benzoyl)H[NMeA][Phg][Trp(7-aza)]Y[NMePhe(4-F)][Sar]C-NH2 (linker 2-13 via mXylylene) [R4134]

- IC50: 364 nM
Binder: Ac-[Nva]CY[Tle]K(ivDde)H[NMeA][Phg][Trp(7-aza)]Y[NMePhe(4-F)][Sar]C (linker 2-13 via m‑xylylene) [R4135]

- IC50: 127 nM
B9: R4126 (peptide)
peptide: Ac-[Nva]CY[Tle]KA[NMeA][Phg][Trp(7-aza)]Y[NMePhe(4-F)][Sar]C-NH2
modifications: linker 2-13 via mXylylene
SMILES: CCC[C@H](NC(C)=O)C(=O)N[C@H]1CSCc2cccc(c2)CSC[C@@H](C(N)=O)NC(=O)CN(C)C(=O)[C@H](Cc2ccc(F)cc2)N(C)C(=O)[C@H](Cc2ccc(O)cc2)NC(=O)[C@H](Cc2c[nH]c3ncccc23)NC(=O)[C@H](c2ccccc2)NC(=O)[C@H](C)N(C)C(=O)[C@H](C)NC(=O)[C@H](CCCCN)NC(=O)[C@H](C(C)(C)C)NC(=O)[C@H](Cc2ccc(O)cc2)NC1=O

- IC50: 227 nM
Binder: Ac-[Nva]C[NMeY][Tle]KH[NMeA][Phg][Trp(7-aza)]Y[NMePhe(4-F)][Sar]C[dS][dA]K[Cys(StBu)]VIM (linker 2-13 via mXylylene) [R4129]

- IC50: 278 nM
Binder: Ac-[Nva]CY[Tle]KH[NMeA][Phg][Trp(7-aza)]Y[NMePhe(4-F)][Sar]CGGGCVIM (linker 2-13 via mXylylene) [R4131]

- IC50: 88.4 nM
B10: R4124 (peptide)
peptide: cyclo([PEG2]Y[Tle]KH[NMeA][Phg][Trp(7-aza)]Y[NMePhe(4-F)][Sar])
SMILES: C[C@H]1C(=O)N[C@@H](c2ccccc2)C(=O)N[C@@H](Cc2c[nH]c3ncccc23)C(=O)N[C@@H](Cc2ccc(O)cc2)C(=O)N(C)[C@@H](Cc2ccc(F)cc2)C(=O)N(C)CC(=O)NCCOCCOCCC(=O)N[C@@H](Cc2ccc(O)cc2)C(=O)N[C@@H](C(C)(C)C)C(=O)N[C@@H](CCCCN)C(=O)N[C@@H](Cc2c[nH]cn2)C(=O)N1C

- IC50: 342 nM
B11: R4133 (peptide)
peptide: Ac-[Nva]CY[Tle]AH[NMeK](Acryloyl)[Phg][Trp(7-aza)]Y[NMePhe(4-F)][Sar]C-NH2
modifications: linker 2-13 via mXylylene
SMILES: C=CC(=O)NCCCC[C@H]1C(=O)N[C@@H](c2ccccc2)C(=O)N[C@@H](Cc2c[nH]c3ncccc23)C(=O)N[C@@H](Cc2ccc(O)cc2)C(=O)N(C)[C@@H](Cc2ccc(F)cc2)C(=O)N(C)CC(=O)N[C@H](C(N)=O)CSCc2cccc(c2)CSC[C@H](NC(=O)[C@H](CCC)NC(C)=O)C(=O)N[C@@H](Cc2ccc(O)cc2)C(=O)N[C@@H](C(C)(C)C)C(=O)N[C@@H](C)C(=O)N[C@@H](Cc2c[nH]cn2)C(=O)N1C

- IC50: 215 nM
B12: R4128 (peptide)
peptide: cyclo([Ava]Y[Tle]KH[NMeA][Phg][Trp(7-aza)]Y[NMePhe(4-F)][Sar][Pra])
SMILES: C#CC[C@@H]1NC(=O)CN(C)C(=O)[C@H](Cc2ccc(F)cc2)N(C)C(=O)[C@H](Cc2ccc(O)cc2)NC(=O)[C@H](Cc2c[nH]c3ncccc23)NC(=O)[C@H](c2ccccc2)NC(=O)[C@H](C)N(C)C(=O)[C@H](Cc2c[nH]cn2)NC(=O)[C@H](CCCCN)NC(=O)[C@H](C(C)(C)C)NC(=O)[C@H](Cc2ccc(O)cc2)NC(=O)CCCCNC1=O

- IC50: 65.7 nM
B13: R4120 (peptide)
peptide: Ac-[Nva]CY[Tle]KH[NMeA][Phg][Trp(7-aza)]Y[NMePhe(4-F)][Sar]CGGGCAIL-NH2
modifications: linker 2-13 via mXylylene
SMILES: CCC[C@H](NC(C)=O)C(=O)N[C@H]1CSCc2cccc(c2)CSC[C@@H](C(=O)NCC(=O)NCC(=O)NCC(=O)N[C@@H](CS)C(=O)N[C@@H](C)C(=O)N[C@H](C(=O)N[C@@H](CC(C)C)C(N)=O)[C@@H](C)CC)NC(=O)CN(C)C(=O)[C@H](Cc2ccc(F)cc2)N(C)C(=O)[C@H](Cc2ccc(O)cc2)NC(=O)[C@H](Cc2c[nH]c3ncccc23)NC(=O)[C@H](c2ccccc2)NC(=O)[C@H](C)N(C)C(=O)[C@H](Cc2c[nH]cn2)NC(=O)[C@H](CCCCN)NC(=O)[C@H](C(C)(C)C)NC(=O)[C@H](Cc2ccc(O)cc2)NC1=O
